B1: RBD-1C (CoV2-RBD-1) (ssDNA)
DNA: CAGCACCGACCTTGTGCTTTGGGAGTGCTGGTCCAAGGGCGTTAATGGACA
modifications: 5'-amino-modifier C6
B2: RBD-1CM2 (ssDNA)
DNA: CAGCACCGACCTTGTGCTTTGGGAGTGCTGGTCCAAGGGCCTTGATGGACA
modifications: 5'-amino-modifier C6
B3: RBD-1CM1 (ssDNA)
DNA: CAGCACCGACCTTGTGCTTTGGGAGTGCTGGTCTAAGGGCGTTAATAGACA
modifications: 5'-amino-modifier C6

Target: SARS-CoV-2 spike protein S1 subunit (SARS-CoV-2, UniProt P0DTC2 14-685)
Test: QCM
Details: protein: commercial

First: B1
Second: B2
The Ka of the first is lower: 1 10^5 M-1 for the first, 1.2 10^5 M-1 for the second.

In the case of B3, the Ka is reported as 1.2 10^5 M-1.

Source: article PMC9143595
